Laboratory results taken from patent US20210301005A1 (Genentech, published 2021).
Where two headings read alike, the source gives them in different places.

T1: human TGFβ2, mature receptor-binding domain (human, UniProt P09858 303-414 (pig entry), The mature TGFβ2 is a disulfide-linked homodimer of this 112-residue chain. The 4A11 epitope spans both monomers (p-1207).)
T1 construct: Peprotech; also called TGFb2
T1 sequence: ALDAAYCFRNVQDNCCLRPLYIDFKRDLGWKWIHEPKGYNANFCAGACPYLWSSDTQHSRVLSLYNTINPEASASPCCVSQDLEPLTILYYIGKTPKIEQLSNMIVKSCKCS

T2: human TGFβ3, mature dimeric form (human, UniProt P10600 301-412)
T2 construct: Peprotech, expressed in E. coli; also called TGFb3
T2 sequence: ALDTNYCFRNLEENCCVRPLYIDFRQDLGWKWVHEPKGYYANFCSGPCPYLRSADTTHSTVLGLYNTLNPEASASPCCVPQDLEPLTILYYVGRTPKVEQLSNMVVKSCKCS

B1: h2A10.v2.1 (antibody, human IgG1, kappa, N297G)
heavy: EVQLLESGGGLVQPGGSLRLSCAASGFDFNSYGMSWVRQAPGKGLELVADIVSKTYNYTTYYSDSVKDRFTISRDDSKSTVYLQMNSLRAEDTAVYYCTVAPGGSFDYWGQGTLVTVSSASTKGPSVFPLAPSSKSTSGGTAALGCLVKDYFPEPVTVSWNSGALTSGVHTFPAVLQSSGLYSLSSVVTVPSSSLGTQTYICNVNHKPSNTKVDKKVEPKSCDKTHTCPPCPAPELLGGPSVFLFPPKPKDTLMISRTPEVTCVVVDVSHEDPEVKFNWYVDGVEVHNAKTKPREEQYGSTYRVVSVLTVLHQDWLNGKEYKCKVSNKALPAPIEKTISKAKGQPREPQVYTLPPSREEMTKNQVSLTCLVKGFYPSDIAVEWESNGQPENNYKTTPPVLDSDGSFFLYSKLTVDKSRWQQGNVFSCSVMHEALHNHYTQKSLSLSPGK
light: DIQMTQSPSSLSASVGDRVTITCRASQSVSISRFNLMHWYQHKPGKQPKLLIYRASNLASGIPSRFSGSGSGTDFTLTISSLQPEDFATYYCQHSRESPWTFGGGTKVEIKRTVAAPSVFIFPPSDEQLKSGTASVVCLLNNFYPREAKVQWKVDNALQSGNSQESVTEQDSKDSTYSLSSTLTLSKADYEKHKVYACEVTHQGLSSPVTKSFNRGEC
B2: h2A10.v2.3 (antibody, human IgG1, kappa, N297G, V domains shown)
VH: EVQLLESGGGLVQPGGSLRLSCAASGFDFNSYGMSWVRQAPGKGLELVADIVSKTYNYTTYYSDSVKDRFTISRDDSKSTVYLQMNSLRAEDTAVYYCTVAPGGSFDYWGQGTLVTVSS
VL: DIQLTQSPSSLSASVGDRVTITCRASQSVSISRFNLMHWYQHKPGKAPKLLIYRASNLASGIPSRFSGSGSGTDFTLTISSLQPEDFATYYCQHSRESPWTFGGGTKVEIKR
B3: h2A10.v2.4 (antibody, human IgG1, kappa, N297G, V domains shown)
VH: EVQLLESGGGLVQPGGSLRLSCAASGFDFNSYGMSWVRQAPGKGLELVADIVSKTYNYTTYYSDSVKDRFTISRDDSKSTVYLQMNSLRAEDTAVYYCTVAPGGSFDYWGQGTLVTVSS
VL: DIQLTQSPSSLSASVGDRVTITCRASQSVSISRFNLMHWYQHKPGKQPKLLIYRASNLASGVPSRFSGSGSGTDFTLTISSLQPEDFATYYCQHSRESPWTFGGGTKVEIKR
B4: h2A10.v2.2 (antibody, human IgG1, kappa, N297G, V domains shown)
VH: EVQLLESGGGLVQPGGSLRLSCAASGFDFNSYGMSWVRQAPGKGLELVADIVSKTYNYTTYYSDSVKDRFTISRDDSKSTVYLQMNSLRAEDTAVYYCTVAPGGSFDYWGQGTLVTVSS
VL: DIQLTQSPSSLSASVGDRVTITCRASQSVSISRFNLMHWYQQKPGKQPKLLIYRASNLASGIPSRFSGSGSGTDFTLTISSLQPEDFATYYCQHSRESPWTFGGGTKVEIKR
B5: h6F12.v1.1 (antibody, human IgG1, kappa, N297G, V domains shown)
VH: EVTLKESGPVLVKPTETLTLTCTVSGFSLTTYNVHWVRQPPGKALEWMGLIWNTGGTRYNSALKSRLTISKDTSKSQVVLTMTNMDPVDTATYYCARDPVPNKWHFDFWGPGTLVTVSS
VL: DIQMTQSPSTLSASVGDRVTITCLASEDIYSNLAWYQQKPGKAPKLLIYDARSLQDGVPSRFSGSESGPEYTLTISSLQPDDFATYFCQQHHAYPFTFGQGTKVEIKR
B6: h6F12.v1.8 (antibody, human IgG1, kappa, N297G, V domains shown)
VH: EVTLKESGPVLVKPTETLTLTCTVSGFSLTTYNVHWVRQPPGKALEWMALIWNTGGTRYNSALKSRLTISKDTSKSQVVLTMTNMDPVDTATYYCARDPVPNKWHFDFWGPGTLVTVSS
VL: DIQMTQSPSTLSASVGDRVTITCLASEDIYSNLAWYQQKPGKSPKLLIYDARSLQDGVPSRFSGSESGPEYTLTISSLQPDDFATYFCQQHHAYPFTFGQGTKVEIKR
B7: h6F12.v1.5 (antibody, human IgG1, kappa, N297G, V domains shown)
VH: EVTLKESGPVLVKPTETLTLTCTVSGFSLTTYNVHWVRQPPGKALEWMGLIWNTGGTRYNSALKSRLTISKDTSKSQVVLTMTNMDPVDTATYYCARDPVPNKWHFDFWGPGTLVTVSS
VL: DIQMTQSPSTLSASVGDRVTITCLASEDIYSNLAWYQQKPGKSPKLLIYDARSLQDGVPSRFSGSESGPEYTLTISSLQPDDFATYYCQQHHAYPFTFGQGTKVEIKR
B8: h6F12.v1.3 (antibody, human IgG1, kappa, N297G, V domains shown)
VH: EVTLKESGPVLVKPTETLTLTCTVSGFSLTTYNVHWVRQPPGKALEWMGLIWNTGGTRYNSALKSRLTISKDTSKSQVVLTMTNMDPVDTATYYCARDPVPNKWHFDFWGPGTLVTVSS
VL: DIQMTQSPSTLSASVGDRVTITCLASEDIYSNLAWYQQKPGKSPKLLIYDARSLQDGVPSRFSGSESGTEYTLTISSLQPDDFATYFCQQHHAYPFTFGQGTKVEIKR
B9: h6F12.v1.4 (antibody, human IgG1, kappa, N297G, V domains shown)
VH: EVTLKESGPVLVKPTETLTLTCTVSGFSLTTYNVHWVRQPPGKALEWMGLIWNTGGTRYNSALKSRLTISKDTSKSQVVLTMTNMDPVDTATYYCARDPVPNKWHFDFWGPGTLVTVSS
VL: DIQMTQSPSTLSASVGDRVTITCLASEDIYSNLAWYQQKPGKSPKLLIYDARSLQDGVPSRFSGSESGPEFTLTISSLQPDDFATYFCQQHHAYPFTFGQGTKVEIKR
B10: h6F12.v1.2 (antibody, human IgG1, kappa, N297G, V domains shown)
VH: EVTLKESGPVLVKPTETLTLTCTVSGFSLTTYNVHWVRQPPGKALEWMGLIWNTGGTRYNSALKSRLTISKDTSKSQVVLTMTNMDPVDTATYYCARDPVPNKWHFDFWGPGTLVTVSS
VL: DIQMTQSPSTLSASVGDRVTITCLASEDIYSNLAWYQQKPGKSPKLLIYDARSLQDGVPSRFSGSGSGPEYTLTISSLQPDDFATYFCQQHHAYPFTFGQGTKVEIKR
B11: h6F12.v1.9 (antibody, V domains shown)
VH: EVTLKESGPVLVKPTETLTLTCTVSGFSLTTYNVHWVRQPPGKALEWMGLIWNTGGTRYNSALKSRLTISKDTSKSQVVLTMTNMDPVDTATYYCARDPVPNKWHFDFWGRGTLVTVSS
VL: DIQMTQSPSTLSASVGDRVTITCLASEDIYSNLAWYQQKPGKSPKLLIYDARSLQDGVPSRFSGSESGPEYTLTISSLQPDDFATYFCQQHHAYPFTFGQGTKVEIK
B12: h6F12.v1.7 (antibody, human IgG1, kappa, N297G, V domains shown)
VH: EVTLKESGPVLVKPTETLTLTCTVSGFSLTTYNVHWVRQPPGKALEWLGLIWNTGGTRYNSALKSRLTISKDTSKSQVVLTMTNMDPVDTATYYCARDPVPNKWHFDFWGPGTLVTVSS
VL: DIQMTQSPSTLSASVGDRVTITCLASEDIYSNLAWYQQKPGKSPKLLIYDARSLQDGVPSRFSGSESGPEYTLTISSLQPDDFATYFCQQHHAYPFTFGQGTKVEIKR
B13: h6F12.v1.6 (antibody, human IgG1, kappa, N297G, V domains shown)
VH: EVTLKESGPVLVKPTETLTLTCTVSGFSLTTYNVHWIRQPPGKALEWMGLIWNTGGTRYNSALKSRLTISKDTSKSQVVLTMTNMDPVDTATYYCARDPVPNKWHFDFWGPGTLVTVSS
VL: DIQMTQSPSTLSASVGDRVTITCLASEDIYSNLAWYQQKPGKSPKLLIYDARSLQDGVPSRFSGSESGPEYTLTISSLQPDDFATYFCQQHHAYPFTFGQGTKVEIKR

Experiments:
[1] = molecular target: T1, human TGFβ2, mature receptor-binding …; test: BIAcore T200
Experimental: (§1) For binding affinity determinations of all humanized 2A10 antibodies, Surface Plasmon Resonance (SPR) measurement with a BIAcore™-T200 instrument was used. Briefly, series S CM5 biosensor chip with protein A was first applied to capture each humanized 2A10 variant to achieve approximately 100 response units (RU) on each flow cell, following by injection of 3-fold serial dilutions of human TGFβ1, TGFβ2 or TGFβ3 (0.02 nM to 5 nM) in HBS-EP buffer (0.01M HEPES pH 7.4, 0.15M NaCl, 3 mM EDTA and 0.05% v/v surfactant P20) at 25° C. with a flow rate of 50 μl/min for kinetics measurement. Association rates (ko.) and dissociation rates (koff) were calculated using a simple one-to-one Langmuir binding model (BIAcore T200 evaluation software version 2.0) to determine the equilibrium dissociation constant (KD), which was calculated as the ratio koff/kₒₙ.

[2] = molecular target: T2, human TGFβ3, mature dimeric form; test: BIAcore T200
Experimental: as §1

[3] = molecular target: T1, human TGFβ2, mature receptor-binding …; test: cell-based or functional assay
[4] = molecular target: T2, human TGFβ3, mature dimeric form; test: cell-based or functional assay
[5] = molecular target: T3, human TGFβ1, mature receptor-binding domain (human, UniProt P01137 279-390); test: cell-based or functional assay
[6] = molecular target: T1, human TGFβ2, mature receptor-binding …; test: cell-based or functional assay; remark: listed apart in the source
[7] = molecular target: T2, human TGFβ3, mature dimeric form; test: cell-based or functional assay; remark: listed apart in the source
[8] = molecular target: T3, human TGFβ1, mature receptor-binding …; test: cell-based or functional assay; remark: listed apart in the source
[9] = molecular target: T1, human TGFβ2, mature receptor-binding …; test: cell-based or functional assay; remark: listed apart in the source

T3 sequence (P01137 279-390 limits assumed): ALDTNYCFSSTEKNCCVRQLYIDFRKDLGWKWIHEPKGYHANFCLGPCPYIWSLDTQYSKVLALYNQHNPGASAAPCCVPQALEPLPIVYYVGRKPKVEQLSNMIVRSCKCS

Binder	Kd [1] [nM]	Kd [2] [nM]	HEKBlue TGFβ blocking IC50 [3] [nM]	HEKBlue TGFβ blocking IC50 [4] [nM]	HEKBlue TGFβ blocking IC50 [5] [nM]	HEKBlue TGFβ blocking IC50 [6] [nM]	HEKBlue TGFβ blocking IC50 [7] [nM]	HEKBlue TGFβ blocking IC50 [8] [nM]	fold drop in blocking against h6F12.v1 [9] [fold]
B1	0.238	0.0031	> 200	0.01	> 200	–	–	–	–
B2	0.242	0.0015	> 200	0.01	> 200	–	–	–	–
B3	0.19	0.0021	> 200	0.01	> 200	–	–	–	–
B4	0.124	0.0012	> 200	0.01	> 200	–	–	–	–
B5	–	–	–	–	–	0.02	> 200	> 200	–
B6	–	–	–	–	–	0.08	> 200	> 200	4
B7	–	–	–	–	–	0.04	> 200	> 200	2
B8	–	–	–	–	–	0.01	> 200	> 200	–
B9	–	–	–	–	–	0.02	> 200	> 200	–
B10	–	–	–	–	–	0.02	> 200	> 200	–
B11	–	–	–	–	–	0.16	> 200	> 200	5 to 8
B12	–	–	–	–	–	0.03	> 200	> 200	–
B13	–	–	–	–	–	0.11	> 200	> 200	5 to 8
